US20250333520A1 (SYNTHEKINE, published 2025)

T1: Fc fused hCD122 (monovalent) (human, UniProt P14784 27-240, limits assumed)
T1 construct: described only as Fc fused, monovalent
T1 sequence (looked up): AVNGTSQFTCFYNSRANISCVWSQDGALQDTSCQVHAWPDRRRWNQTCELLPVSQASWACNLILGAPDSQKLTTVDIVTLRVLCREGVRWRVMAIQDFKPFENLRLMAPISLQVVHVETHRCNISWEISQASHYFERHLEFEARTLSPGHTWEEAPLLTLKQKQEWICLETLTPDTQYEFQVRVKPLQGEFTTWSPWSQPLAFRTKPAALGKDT

T2: Fc fused hCD132 (monovalent) (human, UniProt P31785 23-262, limits assumed)
T2 construct: described only as Fc fused, monovalent
T2 sequence (looked up): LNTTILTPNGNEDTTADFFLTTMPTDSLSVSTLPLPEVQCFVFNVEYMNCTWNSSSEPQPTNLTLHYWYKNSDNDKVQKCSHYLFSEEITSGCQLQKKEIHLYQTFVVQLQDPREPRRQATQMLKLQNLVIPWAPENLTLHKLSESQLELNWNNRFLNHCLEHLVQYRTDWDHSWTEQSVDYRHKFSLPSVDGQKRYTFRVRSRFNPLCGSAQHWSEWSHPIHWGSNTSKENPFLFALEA

B1: DR736(DR588-DR231) (bispecific antibody)
chain: QVQLQESGGGSVQVGGSLKLSCAASGYTYSSYYCMGWFRQAPGKEREGVAAIDSDGSTSYADSVKGRFTISQDDAKNTLYLQMNSLKPEDTAMYYCAASYEVVDCYPSGYGQDYWGKGTQVTVSSGGGSQVQLQESGGGSVQAGGSLRLSCTASGFTFDDREMNWYRQAPGNECELVSTISSDGSTYYADSVKGRFTISQDNAKNTVYLQMDSVKPEDTAVYYCAADFMIAIQAPGAGCWGQGTQVTVSSASHHHHHH
notes: DR588 VHH - GGGS - DR231 VHH - ASHHHHHH; also called anti-IL2Rb/g VHH2 DR736; non-PEGylated DR736
B2: DR638(DR229-DR587) (bispecific antibody)
chain: QVQLQESGGGLVQPGGSLRLSCTASGFSFSSYPMTWARQAPGKGLEWVSTIASDGGSTAYAASVEGRFTISRDNAKSTLYLQLNSLKTEDTAMYYCTKGYGDGTPAPGQGTQVTVSSGGGSQVQLQESGGGSVQVGGSLRLSCATSGDTKSIRCMGWFRQTPGKEREGIAAIDREGFATYADSVYDRFTIAQDNAQNTLYLEMNALKPEDTAMYYCAAQNMCRVVRGAMTGVDYWGKGTQVTVSSASHHHHHH
notes: DR229 VHH - GGGS - DR587 VHH - ASHHHHHH; also called anti-IL2Rb/g VHH2 DR638; non-PEGylated DR638
B3: DR638-PEG40K2a (bispecific antibody)
chain: B2 chain
modifications: one 40 KDa branched polyethylene glycol (mono-PEGylated, coupled with sodium cyanoborohydride at pH ~6.3; residue not stated)
notes: also called PEGylated DR638

target: T1, Fc fused hCD122 (monovalent); experiment: SPR, VHH dimer in the mobile phase, Fc fused hCD122 immobilized
Procedure: (§1) The affinity of the non-PEGylated and the PEGylated forms of DR638 and DR736 prepared in substantial accordance with the foregoing were evaluated by surface plasmon resonance with the VHH dimer molecule in the mobile phase and an immobilized Fc fused hCD122 and hCD132 monovalent and bivalent hCD122/hCD132 Fc construct.

| Kd | Binder |
| --- | --- |
| ~21 nM | B1 |
| < 0.5 nM | B2 |
| ~1.1 nM | B3 |

target: T2, Fc fused hCD132 (monovalent); experiment: SPR, VHH dimer in the mobile phase, Fc fused hCD132 immobilized
Procedure: as §1

| Kd | Binder |
| --- | --- |
| ~6.5 nM | B1 |
| ~0.5 nM | B2 |
| ~16.3 nM | B3 |
